Results: article PMC5683694 (ACS Omega, 2017)
Positions of bridges follow the written chain, without caps; N, C: chain ends. No end group written: not given here.

B1: G7-18NATE-P16 (cyclo-(CH2CO-WFEGYDNTFPC-RQIKIWFQNRRMKWKK)) (peptide)
peptide: {CH2CO}-WFEGYDNTFPCRQIKIWFQNRRMKWKK
modifications: thioether N-11
B2: G7-18NATE-P7 (cyclo-(CH2CO-WFEGYDNTFPC-RRMKWKK)) (peptide)
peptide: {CH2CO}-WFEGYDNTFPCRRMKWKK
modifications: thioether N-11
B3: G7-18NATE (cyclo-CH2CO-WFEGYDNTFPC) (peptide)
peptide: {CH2CO}-WFEGYDNTFPC
modifications: thioether N-11

Key:
[1] = cited from earlier work
live cells = conditions: fluorescence correlation microscopy on live cells; cited from earlier work
[2] = target: Grb7-SH2 domain (growth factor receptor bound protein 7, residues 415-532) (UniProt Q14451 415-532); assay: thermal shift assay
Sequence of Grb7-SH2 domain (growth factor receptor bound protein 7, residues 415-532) (Q14451 415-532): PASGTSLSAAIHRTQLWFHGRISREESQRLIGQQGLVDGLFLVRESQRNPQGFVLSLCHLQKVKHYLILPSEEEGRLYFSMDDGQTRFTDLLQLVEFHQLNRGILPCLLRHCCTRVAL

Molecule	change in Tm [2]	also measured
FQNRRMKWKK		uptake compared to that of the full-length Penetratin sequence [1]: negligible uptake
NRRMKWKK		translocation efficiency (live cells): poor translocation efficiency
B1	0.74 °C	
B2	1.8 °C	
B3	0.8 °C	
